From article PMC11597096, “Unite and Conquer: Association of Two G-Quadruplex Aptamers Provides Antiproliferative and Antimigration Activity for Cells from High-Grade Glioma Patients”

Molecular target: PARP1 (Homo sapiens, UniProt P09874 1-1014)
Assay: BLI; no competitor; kon 6.6 ± 0.34 (10^5 M-1 s-1), koff 1.28 ± 0.04 (printed as 10^2; 10^-2 s-1 implied); BLI: 1x PBS pH 7.4, 25 °C, SAX biosensors, biotinylated oligo loaded at 2 uM, PARP1 2.5-162 nM. Pull-down: 25 mM Tris-HCl pH 7.4, 150 mM NaCl, 1 mM EDTA, 1% NP-40, 5% glycerol, 0.1 mM DTT, room temperature
Conditions: protein: recombinant; label: 5'-biotin; bi-modular G4 with parallel chain stacking

Chain of PARP1 (P09874 whole entry): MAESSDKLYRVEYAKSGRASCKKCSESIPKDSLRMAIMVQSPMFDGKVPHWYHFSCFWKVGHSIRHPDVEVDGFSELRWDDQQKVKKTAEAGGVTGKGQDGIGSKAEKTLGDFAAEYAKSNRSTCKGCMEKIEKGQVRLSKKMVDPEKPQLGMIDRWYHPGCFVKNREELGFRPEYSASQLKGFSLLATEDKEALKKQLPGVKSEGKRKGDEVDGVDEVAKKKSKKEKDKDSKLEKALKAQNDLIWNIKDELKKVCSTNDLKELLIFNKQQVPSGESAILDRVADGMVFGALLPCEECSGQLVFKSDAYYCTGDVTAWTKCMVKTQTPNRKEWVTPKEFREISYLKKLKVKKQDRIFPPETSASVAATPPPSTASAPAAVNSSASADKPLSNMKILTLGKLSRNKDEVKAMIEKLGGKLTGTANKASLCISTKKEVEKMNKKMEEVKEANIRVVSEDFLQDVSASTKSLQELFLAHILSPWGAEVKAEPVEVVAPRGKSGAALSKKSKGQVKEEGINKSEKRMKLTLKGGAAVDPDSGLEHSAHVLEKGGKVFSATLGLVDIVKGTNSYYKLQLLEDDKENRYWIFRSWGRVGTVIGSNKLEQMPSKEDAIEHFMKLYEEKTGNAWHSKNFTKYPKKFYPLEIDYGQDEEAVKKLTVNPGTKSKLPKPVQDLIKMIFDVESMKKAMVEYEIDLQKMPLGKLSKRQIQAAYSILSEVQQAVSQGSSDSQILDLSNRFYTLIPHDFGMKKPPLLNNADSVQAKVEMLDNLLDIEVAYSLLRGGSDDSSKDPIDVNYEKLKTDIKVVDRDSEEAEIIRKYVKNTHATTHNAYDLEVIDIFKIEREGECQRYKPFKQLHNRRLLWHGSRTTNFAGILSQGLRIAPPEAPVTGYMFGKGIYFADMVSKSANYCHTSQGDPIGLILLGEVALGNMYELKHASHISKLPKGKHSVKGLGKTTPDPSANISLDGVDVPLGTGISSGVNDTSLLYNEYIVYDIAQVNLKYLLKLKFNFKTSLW

Binder: GGGTGGGTGGGTGGGTTTGGGTGGGTGGGTGGG (structured_DNA) [bi-(AID-1-T)]
- Kd: 19.4 ± 0.7 nM
